# Measured values taken from the supplement of paper PMC9112550, “Optimization of the antimicrobial peptide Bac7 by deep mutational scanning” (BMC Biology, 2022).
# Test system: Escherichia coli TOP10
# Assay: shrunken log2 fold change of peptide-encoding DNA abundance (4.5 h post-induction vs induction); higher = less antimicrobial activity (less host growth inhibition)
# Settings: time post-induction: 4.5 h; library: site-saturation at positions 5, 18, 19, 20
# 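Further: peptides expressed intracellularly from a pBAD plasmid library in pooled LB shake-flask culture, induced with 0.3% L-arabinose, DNA abundance read by NGS, three biological replicates, DESeq2 with apeglm shrinkage.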
row,Sequence,shrunken log2 fold change
1,RRIRFRPPRLPRPRPRPCYLPRP,-0.891
2,RRIRKRPPRLPRPRPRPRTNPRP,0.238
3,RRIRCRPPRLPRPRPRPLPDPRP,0.33
4,RRIRRRPPRLPRPRPRPCDWPRP,0.156
5,RRIRIRPPRLPRPRPRPSVQPRP,-0.51
6,RRIRLRPPRLPRPRPRPWGAPRP,0.261
7,RRIRPRPPRLPRPRPRPWRRPRP,0.142
8,RRIRTRPPRLPRPRPRPHVEPRP,0.0236
9,RRIRHRPPRLPRPRPRPNGGPRP,-0.147
10,RRIRNRPPRLPRPRPRPHGPPRP,0.115
11,RRIRARPPRLPRPRPRPWMDPRP,0.14
12,RRIRTRPPRLPRPRPRPMNEPRP,-0.172
13,RRIRVRPPRLPRPRPRPHYVPRP,0.0323
14,RRIRTRPPRLPRPRPRPLKYPRP,-0.641
15,RRIRKRPPRLPRPRPRPIKHPRP,0.567
16,RRIRPRPPRLPRPRPRPMVAPRP,0.208
17,RRIRVRPPRLPRPRPRPFNDPRP,-0.416
18,RRIRMRPPRLPRPRPRPGKDPRP,0.0653
19,RRIRNRPPRLPRPRPRPTCRPRP,0.142
20,RRIRHRPPRLPRPRPRPRCFPRP,-0.143
21,RRIRDRPPRLPRPRPRPKEIPRP,0.0219
22,RRIRPRPPRLPRPRPRPEPDPRP,0.537
23,RRIRSRPPRLPRPRPRPKKVPRP,-0.00648
24,RRIRARPPRLPRPRPRPLTEPRP,0.608
25,RRIRYRPPRLPRPRPRPTSRPRP,-0.0257

row,Sequence,shrunken log2 fold change
1,RRIRSRPPRLPRPRPRPWSLPRP,-0.0411
2,RRIRSRPPRLPRPRPRPHADPRP,0.121
3,RRIRCRPPRLPRPRPRPMGNPRP,-0.729
4,RRIRVRPPRLPRPRPRPYAHPRP,-0.38
5,RRIRTRPPRLPRPRPRPGQWPRP,0.0938
6,RRIRMRPPRLPRPRPRPDWYPRP,-0.135
7,RRIRGRPPRLPRPRPRPFTLPRP,-0.109
8,RRIRIRPPRLPRPRPRPFTSPRP,-0.475
9,RRIRLRPPRLPRPRPRPPPPPRP,1.55
10,RRIRKRPPRLPRPRPRPQDMPRP,-0.036
11,RRIRIRPPRLPRPRPRPGPDPRP,-0.0181
12,RRIRNRPPRLPRPRPRPGGFPRP,0.144
13,RRIRNRPPRLPRPRPRPEWWPRP,0.315
14,RRIRNRPPRLPRPRPRPEHVPRP,-0.0119
15,RRIRWRPPRLPRPRPRPVVSPRP,0.0155
16,RRIRERPPRLPRPRPRPWEKPRP,-0.00277
17,RRIRHRPPRLPRPRPRPFTKPRP,0.009
18,RRIRGRPPRLPRPRPRPWEYPRP,-0.00088
19,RRIRHRPPRLPRPRPRPLTFPRP,0.01
20,RRIRDRPPRLPRPRPRPSYIPRP,-0.267
21,RRIRVRPPRLPRPRPRPRMPPRP,0.278
22,RRIRPRPPRLPRPRPRPADHPRP,-0.015
23,RRIRMRPPRLPRPRPRPEGSPRP,3.63
24,RRIRGRPPRLPRPRPRPVACPRP,0.72
25,RRIRMRPPRLPRPRPRPQYRPRP,-0.0939

row,Sequence,shrunken log2 fold change
1,RRIRMRPPRLPRPRPRPFCIPRP,-0.288
2,RRIRLRPPRLPRPRPRPLRHPRP,0.171
3,RRIRQRPPRLPRPRPRPDGCPRP,-0.103
4,RRIRTRPPRLPRPRPRPNDHPRP,-0.0838
5,RRIRMRPPRLPRPRPRPGDVPRP,0.333
6,RRIRLRPPRLPRPRPRPNPSPRP,0.104
7,RRIRTRPPRLPRPRPRPEEKPRP,0.167
8,RRIRTRPPRLPRPRPRPLKFPRP,-0.27
9,RRIRLRPPRLPRPRPRPWVFPRP,0.163
10,RRIRMRPPRLPRPRPRPMFDPRP,-0.328
11,RRIRHRPPRLPRPRPRPVDGPRP,-0.00557
12,RRIRIRPPRLPRPRPRPYHHPRP,-0.0849
13,RRIRLRPPRLPRPRPRPWDYPRP,0.0642
14,RRIRWRPPRLPRPRPRPGVKPRP,0.505
15,RRIRNRPPRLPRPRPRPCQYPRP,-0.0135
16,RRIRVRPPRLPRPRPRPERHPRP,-0.0734
17,RRIRYRPPRLPRPRPRPAQAPRP,0.0486
18,RRIRIRPPRLPRPRPRPCKMPRP,-0.0175
19,RRIRVRPPRLPRPRPRPQQSPRP,-0.0738
20,RRIRIRPPRLPRPRPRPSGMPRP,-0.433
21,RRIRQRPPRLPRPRPRPAFEPRP,-0.0876
22,RRIRHRPPRLPRPRPRPMKLPRP,-0.254
23,RRIRQRPPRLPRPRPRPYWPPRP,-0.11
24,RRIRERPPRLPRPRPRPECGPRP,0.612
25,RRIRGRPPRLPRPRPRPAKTPRP,0.121

row,Sequence,shrunken log2 fold change
1,RRIRNRPPRLPRPRPRPELKPRP,0.00533
2,RRIRCRPPRLPRPRPRPHKKPRP,0.242
3,RRIRTRPPRLPRPRPRPAHLPRP,-0.000138
4,RRIRVRPPRLPRPRPRPSKLPRP,-0.797
5,RRIRYRPPRLPRPRPRPVMMPRP,-0.891
6,RRIRRRPPRLPRPRPRPAMNPRP,0.0496
7,RRIRIRPPRLPRPRPRPVYQPRP,-0.649
8,RRIRCRPPRLPRPRPRPGYYPRP,-0.281
9,RRIRWRPPRLPRPRPRPRRIPRP,0.109
10,RRIRMRPPRLPRPRPRPKIIPRP,0.102
11,RRIRHRPPRLPRPRPRPQTEPRP,-0.102
12,RRIRVRPPRLPRPRPRPYHHPRP,-0.0938
13,RRIRCRPPRLPRPRPRPYWAPRP,-1.21
14,RRIRARPPRLPRPRPRPIAMPRP,0.207
15,RRIRHRPPRLPRPRPRPYYIPRP,0.0121
16,RRIRGRPPRLPRPRPRPVVAPRP,1.19
17,RRIRVRPPRLPRPRPRPSKRPRP,-0.229
18,RRIRMRPPRLPRPRPRPILCPRP,0.0427
19,RRIRCRPPRLPRPRPRPHPGPRP,-0.156
20,RRIRQRPPRLPRPRPRPNGTPRP,1.1
21,RRIRNRPPRLPRPRPRPIGLPRP,-0.123
22,RRIRQRPPRLPRPRPRPCPNPRP,-0.152
23,RRIRTRPPRLPRPRPRPWAVPRP,-0.0894
24,RRIRKRPPRLPRPRPRPHWNPRP,-0.296
25,RRIRLRPPRLPRPRPRPSNCPRP,-0.581

row,Sequence,shrunken log2 fold change
1,RRIRFRPPRLPRPRPRPFYLPRP,-0.787
2,RRIRERPPRLPRPRPRPWYPPRP,-0.224
3,RRIRARPPRLPRPRPRPFVEPRP,0.108
4,RRIRMRPPRLPRPRPRPMAPPRP,0.218
5,RRIRKRPPRLPRPRPRPLTCPRP,-0.000599
6,RRIRIRPPRLPRPRPRPSVTPRP,-0.781
7,RRIRIRPPRLPRPRPRPRVHPRP,-0.0227
8,RRIRARPPRLPRPRPRPSWFPRP,0.156
9,RRIRPRPPRLPRPRPRPPFSPRP,0.0978
10,RRIRFRPPRLPRPRPRPMSFPRP,-0.193
11,RRIRERPPRLPRPRPRPQGWPRP,0.114
12,RRIRFRPPRLPRPRPRPPLGPRP,1.33
13,RRIRCRPPRLPRPRPRPFPFPRP,-0.353
14,RRIRMRPPRLPRPRPRPEAHPRP,3.52
15,RRIRMRPPRLPRPRPRPPFDPRP,0.873
16,RRIRTRPPRLPRPRPRPQKVPRP,-0.0169
17,RRIRSRPPRLPRPRPRPETMPRP,0.205
18,RRIRDRPPRLPRPRPRPKDCPRP,0.173
19,RRIRSRPPRLPRPRPRPMAPPRP,0.257
20,RRIRDRPPRLPRPRPRPCRRPRP,-0.155
21,RRIRERPPRLPRPRPRPHLTPRP,0.0373
22,RRIRFRPPRLPRPRPRPAGHPRP,0.153
23,RRIRRRPPRLPRPRPRPCTRPRP,0.0341
24,RRIRLRPPRLPRPRPRPYVFPRP,-0.515
25,RRIRYRPPRLPRPRPRPMDYPRP,-0.218
